Test system: MS2 coat protein
Assay: apparent KD of MS2 coat protein; designed switch direction (-1 OFF switch, 1 ON switch): -1; higher = weaker reporter binding
In short: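 Apparent KD, taken as the median over clusters for each design, was obtained by curve-fitting normalised cluster fluorescence. Designed RNA switches had been transcribed on Illumina chips by stalled E. coli RNA polymerase and titrated with SNAP-549-labelled MS2 coat protein, doubling from 0.7 or 1.5 nM to 3 µM.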

[1] = input ligand: microRNA oligo, concentration not stated
[2] = Eterna round: R95, input ligand: microRNA oligo, concentration not stated
[3] = Eterna round: R95, input ligand: FMN 200 uM
[4] = Eterna round: R95, input ligand: none

Sequence	apparent KD of MS2 coat protein (input ligand: FMN 200 uM)	apparent KD of MS2 coat protein [1]	apparent KD of MS2 coat protein (input ligand: none)	apparent KD of MS2 coat protein [2]	apparent KD of MS2 coat protein [3]	apparent KD of MS2 coat protein [4]
CAGUACUGAGGAUAUACAUGAGGAUCACCCAUGUGUUCCAGCUAGGAAACUAGCACUUGUAGAAGGCAGUACUG [Ex3: 830] (Eterna round: R96, puzzle: Exclusion 3)	458 nM	21.6 nM	26.7 nM	–	–	–
CAGUACUGAGGAUAUACAUGAGGAUCACCCAUGUGUUCCAGCUAGGAAACUAGCAUAAGUAGAAGGCAGUACUG [salish99_ex3_r3_091x] (Eterna round: R96, puzzle: Exclusion 3)	461 nM	18.4 nM	23.6 nM	–	–	–
CAGUACUGAGGAUAUACAUGAGGAUCACCCAUGUGUUCCAGCUAGGAAACUAGCAUAAGUAGAAGGCAGUACUG [salish99_ex3_r3_091x] (puzzle: Exclusion 3)	–	–	–	21.8 nM	–	–
CAGUACUGAGGAUAUACAUGAGGAUCACCCAUGUGUUCCAGCUAGGAAACUGGCAAAAGUAGAAGGCAGUACUG [salish99_ex3_r3_070] (puzzle: Exclusion 3)	–	–	–	21.6 nM	–	–
CAGUACUGAGGAUAUACAUGAGGAUCACCCAUGUUCUUCGGCUAGGAAACUAGCAAAGGUAGAAGGCAGUACUG [Salish 065 m16] (Eterna round: R97, puzzle: Exclusion 3)	285 nM	–	15.7 nM	–	–	–
CAGUACUGCAAGCUAUGGGACAUGAGGAUCACCCAUGUUCGUCUUAUUGAUCUAGGUACGCUGACGUACCUAGAUCU [JL-sv1-2.20 Brourd mod] (puzzle: Sensor v3, turn-off variant 1)	–	–	–	20.5 nM	16.3 nM	15.9 nM
CAGUACUGCAGGCUUCGGGACAUGAGGAUCACCCAUGUUCGUCUUAUUGAUCUAGGUACGCUGACGUACCUAGAUCU [JL-sv1-2.16 Brourd mod] (puzzle: Sensor v3, turn-off variant 1)	–	–	–	18.6 nM	16.7 nM	15.4 nM
CAUAAUGCAGGAUAUACCAAAUGGCAGUGAAUGCGUGCGCAACAUGAGGAUCACCCAUGUAGAAGGGCACAAGA [Eternabot (Original) Solution 27] (Eterna round: R97, puzzle: Exclusion 2)	18 nM	–	13.5 nM	–	–	–
CAUAGUUACUCAGGAUAUAGUACAUGAGGAUCACCCAUGUAAUAAAUGAGAAUUUCGAAUGUAUACUAGAAGGGAGAAAUCUAC [Ostracism 55 - Jieux - Exclusion NG 2] (Eterna round: R96, puzzle: Exclusion NG 2)	44.5 nM	35.8 nM	46.1 nM	–	–	–
CAUAUACAUGAGGAUCACCCAUGUGAGGAUAUGCUUUAUUAUUAUUAUUAUUAUUAUUGCAGAAGGUACAUUAC [LRO-Excl01-12] (Eterna round: R97, puzzle: Exclusion 1)	23.9 nM	–	24.6 nM	–	–	–
CAUGAUCUUCGGAUCAUGUACAUGAGGAUCACCCAUGUGACGAGUUACAUGUUUUACAAGCUUUUUGCUCGUCUUAU [Sensor v3 - Turn-off variant 1 - 14] (puzzle: Sensor v3, turn-off variant 1)	–	–	–	99.4 nM	40.3 nM	47.4 nM
CAUGAUUGGCGAGGAUAUUGACCUAGUUCGCGACGAGAAGGCGCCUGUCACAUGAGGAUCACCCAUGUGAAUCUGGUGAAAGAG [Ex NG1 #91] (Eterna round: R96, puzzle: Exclusion NG 1)	14.5 nM	11.4 nM	20.3 nM	–	–	–
CAUGAUUGGCGAGGAUAUUGAUCUAGUUGGCGACGAGAAGGCGCCUGUCACAUGAGGAUCACCCAUGUGAAUCUGGUGAAAGAG [Ex NG1 #89] (Eterna round: R96, puzzle: Exclusion NG 1)	24.9 nM	18.5 nM	25.9 nM	–	–	–
CAUGGAACAUAGGAUAUCUCGCGGCUAGACUGCAGAGAAGGAUGUACAUGAGGAUCACCCAUGUAUGAUCCAGU [Leisceza] (puzzle: Exclusion 6)	–	–	–	15.8 nM	29.3 nM	17.3 nM
CAUGUGUAAGGAUAUGACAAUGGUAUCUUCGGAUACCAUUGUCAGAAGGUACAUGAGGAUCACCCAUGUACAUC [Ex4-3: 17] (puzzle: Exclusion 4)	–	–	–	13.1 nM	–	–
CAUGUGUGAGGAUAUCCUAGACUAAUGGAGACGCUACCGUGGGAGAAGGUACAUGAGGAUCACCCAUGUGGACC [Eternabot (L1) Solution 88] (Eterna round: R97, puzzle: Exclusion 4)	32.7 nM	–	32.2 nM	–	–	–
CAUUAGCAAGCGAGAUCCCACAUGAGGAUCACCCAUGUGCUCGUCUUAUAAGGUACUGUGACGAGAGUCACGGUACC [Mat - Sensor, turn-off var - Eli Mod - D42] (Eterna round: R97, puzzle: Sensor, turn-off variant 1)	15.2 nM	–	16.1 nM	–	–	–
CAUUAUGUUGAGGAUAUGCACCAGCUCACUGACGCAGAAGGCGACACAUGAGGAUCACCCAUGUCAGUUCGCGU [salish99_ex6_r004_429] (Eterna round: R97, puzzle: Exclusion 6)	23.5 nM	–	17 nM	–	–	–
CAUUAUGUUGAGGAUAUGCGCCGGCUCGCUGGCGCAGAAGGCGACACAUGAGGAUCACCCAUGUCAGUUCGCGA [salish99_ex6_r004_418] (Eterna round: R97, puzzle: Exclusion 6)	13.3 nM	–	8.87 nM	–	–	–
CAUUAUUAUCGAGGAUAUCCUAUUGAAAUUCUGGGAGAAGGCGGACUCAACAUGAGGAUCACCCAUGUAAGACGGGUGCUAGGG [Ex NG1 #25] (Eterna round: R96, puzzle: Exclusion NG 1)	202 nM	93.1 nM	157 nM	–	–	–
CAUUGACAUGAGGAUCACCCAUGUCAGGAUAUGCUUCAUGACACGAAAGUGUCAUGAAGCAGAAGGGACAUGCC [SS1 Omei 1] (puzzle: Exclusion 1)	–	–	–	19.5 nM	–	–
CAUUGUUAUCGAGGAUAUCGUAUUGAGAUACUACGAGAAGGCGGAAUAAACAUGAGGAUCACCCAUGUGAGACGGAUGCUUGUG [Ex NG1 #34] (Eterna round: R96, puzzle: Exclusion NG 1)	34.1 nM	16 nM	28.3 nM	–	–	–
CCAAGCUUCUUCAUUAUCCACAUGAGGAUCACCCAUGUCUUGGCAAUUAUGACCUGCCCGUCAGGAGCUCGUCUUAU [Sensor-V1 #38] (Eterna round: R97, puzzle: Sensor, turn-off variant 1)	806 nM	–	951 nM	–	–	–

Source: the supplement of paper PMC9170038
